According to patent US20250313637A1 (DREN BIO MANAGEMENT, published 2025):

T1: human Dectin-1 expressed by HEK-Blue hDectin-1-a cells (human, UniProt Q9BXN2 1-247)
T1 sequence: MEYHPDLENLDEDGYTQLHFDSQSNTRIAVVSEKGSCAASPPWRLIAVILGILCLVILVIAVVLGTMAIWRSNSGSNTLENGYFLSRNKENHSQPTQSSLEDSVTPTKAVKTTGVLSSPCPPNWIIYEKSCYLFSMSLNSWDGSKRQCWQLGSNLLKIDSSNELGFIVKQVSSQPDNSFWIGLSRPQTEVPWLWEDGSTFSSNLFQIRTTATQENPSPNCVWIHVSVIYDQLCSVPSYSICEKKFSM

T2: CD20 expressed on Raji cells (UniProt P11836 1-297, limits assumed)
T2 construct: whole, on cells; also called CD20-expressing Raji cells; CD20-expressing B cell lymphoma Raji cell line
T2 sequence (looked up): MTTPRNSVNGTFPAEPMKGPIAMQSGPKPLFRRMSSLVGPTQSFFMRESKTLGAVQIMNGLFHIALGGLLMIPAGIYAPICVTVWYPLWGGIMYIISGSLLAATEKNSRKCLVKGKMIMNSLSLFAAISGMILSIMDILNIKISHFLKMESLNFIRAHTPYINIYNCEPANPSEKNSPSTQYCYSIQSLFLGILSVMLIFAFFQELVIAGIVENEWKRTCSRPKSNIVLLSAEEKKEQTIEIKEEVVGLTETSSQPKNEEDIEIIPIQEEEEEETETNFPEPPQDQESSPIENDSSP


Assays:
[1] = target: T1, human Dectin-1 expressed by HEK-Blue …; experiment: cell-based or functional assay
[2] = target: T2, CD20 expressed on Raji cells; experiment: flow cytometry on CD20-expressing Raji cells
Description: To evaluate the effect of the 2M24xCD20 bispecific antibody on cells, its binding affinity for cells expressing Dectin-1 or CD20 was measured. Two different formats were used to drive heavy:light chain pairing and bispecific antibody assembly: the DuetMab format with engineered disulfide bonds (see Mazor, Y. et al. (2015) MAbs 7:377-389) (“2M24xCD20 hG1 Duet”) and the M-Fab format described herein (see, e.g., FIG. 3) (“2M24xCD20 hG1M”), as compared to monospecific anti-CD20 with hG1 Fc. Binding of the bispecific 2M24xCD20 antibodies to Dectin-1-expressing HEK293 cells was assessed by flow cytometry (FIG. 7A). Both M-Fab and DuetMab formats were able to bind cells expressing Dectin-1 with similar affinities. Binding of the bispecific 2M24xCD20 antibodies to cells expressing CD20 was also assessed by flow cytometry, using the CD20-expressing B cell lymphoma Raji cell line (FIG. 7B). Both M-Fab and DuetMab were able to bind cells expressing CD20 with similar affinities, but with reduced affinity compared to the parental monospecific anti-CD20 antibody.

| SEAP reporter assay EC50 (OD630), HEK-Blue hDectin-1-a cells co-cultured with CD20-expressing Raji cells, Exp. 1 [1] [nM] | SEAP reporter assay EC50 (OD630), HEK-Blue hDectin-1-a cells co-cultured with CD20-expressing Raji cells, Exp. 2 [1] [nM] | SEAP reporter assay EC50, in presence of CHO cells (~2 million copies/cell) [1] [nM] | SEAP reporter assay EC50, in presence of H2170 cells expressing Trop2 (~136,000 copies/cell) [1] [nM] | SEAP reporter assay EC50, in presence of HeLa cells expressing Trop2 (~25,500 copies/cell) [1] [nM] | SEAP reporter assay, fold shift in EC50 against traditional bispecific, CHO cells [1] [fold] | SEAP reporter assay, fold shift in EC50 against traditional bispecific, H2170 cells [1] [fold] | SEAP reporter assay, fold shift in EC50 against traditional bispecific, HeLa cells [1] [fold] | binding result [2] | Binder |
| --- | --- | --- | --- | --- | --- | --- | --- | --- | --- |
| 3.65 | 3.53 |  |  |  |  |  |  |  | M-Fab 2M24xCD20 bispecific antibody (2M24xCD20 hG1M) (bispecific antibody, human IgG1, kappa) heavy 1: not shown light 1: DIQMTQSPSSVSASVGDRVTITCRASQGISSWLAWYQQKPGKAPKLLIFGASSLQSGVPSRFSGSGSGTDFTLTVSSLQPEDFATYYCQQAYSFPFTFGPGTKVDIERTVALHRPDVYLLPPAREQLNLRESATIWCLVTGFSPADVFVQWMQRGQPLSPEKYVTSAPMPEPQAPGRYFAHSILTVSEEEWNTGETYTCVVAHEALPNRVTERTVDKSTGEC heavy 2: QVQLQQPGAELVKPGASVKMSCKASGYTFTSYNMHWVKQTPGRGLEWIGAIYPGNGDTSYNQKFKGKATLTADKSSSTAYMQLSSLTSEDSAVYYCARSTYYGGDWYFNVWGAGTTVTVSAASTKGPSVFPLAPSSKSTSGGTAALGCLVKDYFPEPVTVSWNSGALTSGVHTFPAVLQSSGLYSLSSVVTVPSSSLGTQTYICNVNHKPSNTKVDKKVEPKSCDKTHTCPPCPAPELLGGPSVFLFPPKPKDTLMISRTPEVTCVVVDVSHEDPEVKFNWYVDGVEVHNAKTKPREEQYNSTYRVVSVLTVLHQDWLNGKEYKCKVSNKALPAPIEKTISKAKGQPREPQVYTLPPSREEMTKNQVSLSCAVKGFYPSDIAVEWESNGQPENNYKTTPPVLDSDGSFFLVSKLTVDKSRWQQGNVFSCSVMHEALHNRFTQKSLSLSPG light 2: QIVLSQSPAILSASPGEKVTMTCRASSSVSYIHWFQQKPGSSPKPWIYATSNLASGVPVRFSGSGSGTSYSLTISRVEAEDAATYYCQQWTSNPPTFGGGTKLEIKRTVAAPSVFIFPPSDEQLKSGTASVVCLLNNFYPREAKVQWKVDNALQSGNSQESVTEQDSKDSTYSLSSTLTLSKADYEKHKVYACEVTHQGLSSPVTKSFNRGEC |
|  |  | 0.13 | 0.17 | 0.37 | 9.8 | 47.6 | 4.7 |  | 2+1 M-Fab (2M24xTrop2 hIgG1) bispecific antibody (bispecific antibody) heavy 1: not shown light 1: not shown heavy 2: not shown light 2: DIVLTQSPGTLSLSPGERATLSCRASQSVSSSYLAWYQQKPGQAPRLLISGASSRATGIPDRFSGSGSGTDFTLTISRLEPEDFAVYYCQQYGSSHRTFGQGTKVEIKRTVALHRPDVYLLPPAREQLNLRESATIWCLVTGFSPADVFVQWMQRGQPLSPEKYVTSAPMPEPQAPGRYFAHSILTVSEEEWNTGETYTCVVAHEALPNRVTERTVDKSTGES |
| 2.63 | 3.19 |  |  |  |  |  |  | binds | DuetMab 2M24xCD20 bispecific antibody (2M24xCD20 hG1 Duet) (bispecific antibody, V domains shown, Human IgG1 in the DuetMab format with engineered disulfide bonds (Mazor 2015)) VH 1: QVQLVQSGAEVKKPGASVKVSCKSSGYTFTDYYIHWVRQAPGQGLEWMGWINPNSGDTNYAQKFQGRITMTRDTSISTAYLELSRLRSDDTAVFYCARNSGSYSFGYWGQGTLVTVSS VL 1: DIQMTQSPSSVSASVGDRVTITCRASQGISSWLAWYQQKPGKAPKLLIFGASSLQSGVPSRFSGSGSGTDFTLTVSSLQPEDFATYYCQQAYSFPFTFGPGTKVDIE VH 2: QVQLQQPGAELVKPGASVKMSCKASGYTFTSYNMHWVKQTPGRGLEWIGAIYPGNGDTSYNQKFKGKATLTADKSSSTAYMQLSSLTSEDSAVYYCARSTYYGGDWYFNVWGAGTTVTVSA VL 2: QIVLSQSPAILSASPGEKVTMTCRASSSVSYIHWFQQKPGSSPKPWIYATSNLASGVPVRFSGSGSGTSYSLTISRVEAEDAATYYCQQWTSNPPTFGGGTKLEIK |
